± gives the half width of the 95% confidence interval.
Assays:
[1] = folding stability dG unfold from trypsin proteolysis; higher = more stable
Outline: (§1)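 Bayesian fitting of sequencing counts gave K50 for each design. Unfolding free energy followed by setting this against a sequence-predicted unfolded-state K50 and a shared folded-state K50, either per protease or with trypsin and chymotrypsin combined. The designs, under 80 residues and lacking cysteine, were digested in a PA-tagged cDNA display format at 11 threefold-diluted protease concentrations and without protease, and only those with AlphaFold2 dimer inter-PAE above 15 were kept.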

[2] = folding stability dG unfold from chymotrypsin proteolysis; higher = more stable
Outline: as §1

[3] = folding stability dG unfold (combined trypsin and chymotrypsin); higher = more stable
Outline: as §1

Sequence | folding stability dG unfold [1] [kcal/mol] | folding stability dG unfold [2] [kcal/mol] | folding stability dG unfold [3] [kcal/mol]
SAGGSAGGSPDEGDPVKITILIMIMIPNENGEPYFIFIRVEITIDPKDNKIQITKIDEIYIFPSAGGSAGGS [r12_358_TrROS] | 3.74 ± 0.16 | 4.66 ± 0.1 | 4.42 ± 0.12
SAGGSAGGSPDLPELNIEPVSTLPDGSKIYRADVSPEAIARLKAANPAVTVEEHPDFLLLFLRESAGGSAGG [r6_395_JUSTAS] | 0.475 ± 0.059 | 0.666 ± 0.058 | 0.565 ± 0.04
SAGGSAGGSPESVTFPVGDYLVTVTRNPEDGSLTVTVYDPKTGKPIVLPPEVLAENPDLAENLSAGGSAGGS [r12_817_TrMRF] | 3.14 ± 0.11 | 2.35 ± 0.058 | 2.68 ± 0.056
SAGGSAGGSPGKPYVEVEFTFIAFFPDGWLWVMTMKIEIPPDNNEIKPDIEMERIPLPPGQFLSAGGSAGGS [r12_811_TrROS] | 2.43 ± 0.05 | 2.73 ± 0.066 | 2.7 ± 0.08
SAGGSAGGSPGMKPVEIPFRNPDGKNWKITSIYVMPDGPAMITIEDPNNGKERQIPAEDIDEFSAGGSAGGS [r12_488_TrROS] | -0.911 ± 0.58 | 0.227 ± 0.32 | -0.136 ± 0.21
SAGGSAGGSPGPGTEVEVRYRHPATGRWYPGVAVFTPDGSIRVYFPALGTTVTVPPHTVEPVPSAGGSAGGS [r12_726_TrMRF] | 1.98 ± 0.056 | 1.93 ± 0.031 | 1.93 ± 0.053
SAGGSAGGSPGTLIEVRFPDRIVRIYQLPPGVYRVEVYEPPYLVATIELPNVTAEEAARLALGSAGGSAGGS [r20_8_TrMRF] | 1.61 ± 0.034 | 3.071 ± 0.021 | 2.72 ± 0.054
SAGGSAGGSPIKIEFPPGIKEIEPIENDPNKTIMFRFPDYLVRIRINPKNGKIDIEIVPPGDMSAGGSAGGS [r12_858_TrROS] | 1.94 ± 0.028 | 1.9 ± 0.027 | 1.82 ± 0.11
SAGGSAGGSPKWKTIEITVLVPGMPAEEIAKNIANNFGIEITDIDVQLFPNGWVVVSATIRVKSAGGSAGGS [r12_359_TrROS] | 2.59 ± 0.087 | 3.16 ± 0.051 | 2.99 ± 0.096
SAGGSAGGSPLVKTTTSVDPVGPDRTLTTSTATLPSGGTTVTTTTFLTSPDGTVPVATTTTPSASAGGSAGG [r6_471_JUSTAS] | -0.461 ± 0.15 | 0.24 ± 0.14 | -0.11 ± 0.21
SAGGSAGGSPMKIEAVELEDGTVAYRLEDGTVLLVTKNEDGTYTVKVFKNGKLVEEKEIKLPPSAGGSAGGS [r12_451_TrROS_Hall] | 2.28 ± 0.069 | 3.277 ± 0.03 | 2.99 ± 0.071
SAGGSAGGSPNPKVVPFTFPVVIPDEDGHPYLVNVTVTAIPDTDTYYARITYPDGRVEDFVLASAGGSAGGS [r12_286_TrMRF] | 1.94 ± 0.049 | 2.494 ± 0.015 | 2.33 ± 0.04
SAGGSAGGSPPGWTIMMFEITISITVPRVEVYDPKDGKPRAEVPYVRVSIPIPIFIIFPAGAFSAGGSAGGS [r12_600_TrROS] | 2.93 ± 0.17 | 4.24 ± 0.12 | 3.77 ± 0.11
SAGGSAGGSPPNWKTIPITFWVDPGDVEEFANILRDLGLEIEDVEVEPNPDGHVWVTITIVIPSAGGSAGGS [r12_905_TrROS] | 2.57 ± 0.17 | 3.54 ± 0.1 | 3.33 ± 0.18
SAGGSAGGSPRIVRVEVDPPPGGLGLARIEVEVVDPSTGVPRLERRTVPVPLGDWKKLLDFLGSAGGSAGGS [r12_691_TrMRF] | 2.06 ± 0.051 | 2.25 ± 0.054 | 2.23 ± 0.15
SAGGSAGGSPVKDPDGKEVVPIQMTFIIRDPEMGKPVLITITFYIDPAPGGKIKDISIDIFPLSAGGSAGGS [r12_0_TrROS] | 3.51 ± 0.27 | 4.29 ± 0.17 | 4.04 ± 0.17
SAGGSAGGSPVLVRVYARDEDGNETPVAEIALPVENDNPEEAAKKAREIAKKLGVKEYRVEIESAGGSAGGS [r12_569_TrMRF] | 1.37 ± 0.031 | 1.56 ± 0.046 | 1.48 ± 0.04
SAGGSAGGSPVVVIEVPAEDLSPEDIKALLAAAPDENAVIVITNPDGEKRTLVFTPDGRIEPLSAGGSAGGS [r12_1054_TrROS_Hall] | 0.681 ± 0.024 | 0.451 ± 0.1 | 0.593 ± 0.042
SAGGSAGGSPWKKVKFKFMFPFPNYYVRISIEIWVNPGDNEIMIEMSIEIFPIPPGDNKAFKDSAGGSAGGS [r12_885_TrROS] | 2.79 ± 0.24 | 3.9 ± 0.11 | 3.31 ± 0.36
SAGGSAGGSPYKEVPVPVRIHSPDGETHEFPGTIWKSPDDGMLEIRFPGNGKKHKIPLNDIQISAGGSAGGS [r12_772_TrROS] | -1.5 ± 0.59 | -0.606 ± 0.19 | -0.699 ± 0.22
SAGGSAGGSPYLVTVTLPDGSTLTHTIPVPPDVPLSEEEIRERIRREYPGPPLGPITIERPTESAGGSAGGS [r12_262_JUSTAS] | 0.885 ± 0.015 | 1.62 ± 0.047 | 1.35 ± 0.09
SAGGSAGGSRLDATRALLDKLPPGSVTVTVYVNGKPVTFRFGSREEIEEAIEANPDVEVEIEPASAGGSAGG [r6_421_TrMRF] | 0.93 ± 0.13 | 1.74 ± 0.16 | 1.38 ± 0.098
SAGGSAGGSSAVVPLPDVVLVVLTFPDGGPPVLALLFPPTGRVVFVHPDSVTVAPFAPGGSLLSAGGSAGGS [r12_536_TrMRF] | 1.1 ± 0.036 | 1.74 ± 0.062 | 1.51 ± 0.07
SAGGSAGGSSFSVEVIENPDSDVILRKIHFDNFTVIPLFDPSTGKIVSVVVQFPDGSWYTFPLSAGGSAGGS [r12_563_TrMRF] | 2.18 ± 0.1 | 2.78 ± 0.053 | 2.51 ± 0.11
SAGGSAGGSSGKYTITVTRKNPDGTPLGVFPIEVEGESEEEAKALAEELKNQPDVVEVKVTYVDSAGGSAGG [r6_475_JUSTAS] | 1.37 ± 0.027 | 1.02 ± 0.054 | 1.22 ± 0.048
SAGGSAGGSSGTVTLRLRFRVVDLDPATGEASEHEFELTLTVPIELPAAAPPATPTYGLTLPGSAGGSAGGS [r12_140_TrMRF] | 0.895 ± 0.12 | 2.79 ± 0.074 | 2.39 ± 0.16
SAGGSAGGSSKTFKDPDGWTITVEPLDGGVKVEIYWPDGQRQEHLIPPGEPIKIDPNGWYIEISAGGSAGGS [r12_281_TrROS] | 0.5 ± 0.069 | 2.11 ± 0.061 | 1.69 ± 0.19

Reference: the supplement of paper PMC12764529
